From patent publication US20210115130A1 (Innovent, published 2021)

T1: IL-23 (R&D Systems, Catalog No. 1290-IL-500/CF) (UniProt Q9NPF7 20-189; P29460 23-328)
T1 sequence (looked up) 1: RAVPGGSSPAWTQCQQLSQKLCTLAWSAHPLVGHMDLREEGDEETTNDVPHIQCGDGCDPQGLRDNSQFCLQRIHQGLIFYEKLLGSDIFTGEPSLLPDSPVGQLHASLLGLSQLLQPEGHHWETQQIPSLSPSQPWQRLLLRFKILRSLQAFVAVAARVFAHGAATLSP
T1 sequence (looked up) 2: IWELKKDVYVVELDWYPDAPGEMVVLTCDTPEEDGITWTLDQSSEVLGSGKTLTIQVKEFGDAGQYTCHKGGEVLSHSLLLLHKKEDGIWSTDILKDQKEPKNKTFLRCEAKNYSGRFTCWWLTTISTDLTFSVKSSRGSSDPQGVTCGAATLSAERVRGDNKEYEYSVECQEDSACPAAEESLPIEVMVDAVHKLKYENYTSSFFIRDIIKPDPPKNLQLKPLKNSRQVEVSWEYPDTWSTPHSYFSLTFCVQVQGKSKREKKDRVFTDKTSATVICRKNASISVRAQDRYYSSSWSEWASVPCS

T2: human IL23 protein (human IL12p40 - linker - human IL23p19 - His tag) (human, UniProt P29460 23-328; Q9NPF7 21-189)
T2 construct: range 23-328;range 21-189; Single-chain fusion expressed in Expi293 cells; also called IL-23 antigen
T2 sequence: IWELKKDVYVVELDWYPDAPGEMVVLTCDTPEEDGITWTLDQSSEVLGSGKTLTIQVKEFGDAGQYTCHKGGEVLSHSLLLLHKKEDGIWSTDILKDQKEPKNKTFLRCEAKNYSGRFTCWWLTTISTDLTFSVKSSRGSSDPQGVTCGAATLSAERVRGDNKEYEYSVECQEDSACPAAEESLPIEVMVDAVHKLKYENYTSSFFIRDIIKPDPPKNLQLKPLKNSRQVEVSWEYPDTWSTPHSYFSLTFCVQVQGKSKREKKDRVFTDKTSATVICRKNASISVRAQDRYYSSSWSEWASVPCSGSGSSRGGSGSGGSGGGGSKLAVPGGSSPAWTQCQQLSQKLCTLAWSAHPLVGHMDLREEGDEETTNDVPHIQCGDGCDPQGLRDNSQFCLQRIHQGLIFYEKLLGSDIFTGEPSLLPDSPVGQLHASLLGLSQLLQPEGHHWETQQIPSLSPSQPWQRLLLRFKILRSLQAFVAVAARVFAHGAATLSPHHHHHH

T3: human IL-12 (ACRO Biosystems, Cat #IL2-H4210) (human, UniProt P29459 23-219; P29460 23-328)
T3 construct: Bought protein
T3 sequence (looked up) 1: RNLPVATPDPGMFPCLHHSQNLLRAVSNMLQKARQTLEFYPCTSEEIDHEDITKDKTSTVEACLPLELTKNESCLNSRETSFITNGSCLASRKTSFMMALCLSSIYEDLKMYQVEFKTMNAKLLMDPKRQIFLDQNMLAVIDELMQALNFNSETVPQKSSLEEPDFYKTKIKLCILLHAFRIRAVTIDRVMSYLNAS
T3 sequence (looked up) 2: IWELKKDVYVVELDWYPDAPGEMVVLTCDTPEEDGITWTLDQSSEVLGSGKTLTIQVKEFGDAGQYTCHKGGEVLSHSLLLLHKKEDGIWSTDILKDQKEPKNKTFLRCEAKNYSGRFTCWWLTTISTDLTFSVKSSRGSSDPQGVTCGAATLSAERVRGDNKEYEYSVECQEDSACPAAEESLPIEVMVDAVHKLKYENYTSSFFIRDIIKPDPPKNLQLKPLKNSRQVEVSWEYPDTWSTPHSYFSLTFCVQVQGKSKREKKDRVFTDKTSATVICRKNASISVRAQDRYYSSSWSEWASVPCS

T4: human IL-12p40 (ACRO Biosystems, Cat #NK2-H52H7) (human, UniProt P29460 23-328)
T4 construct: Bought protein
T4 sequence (looked up): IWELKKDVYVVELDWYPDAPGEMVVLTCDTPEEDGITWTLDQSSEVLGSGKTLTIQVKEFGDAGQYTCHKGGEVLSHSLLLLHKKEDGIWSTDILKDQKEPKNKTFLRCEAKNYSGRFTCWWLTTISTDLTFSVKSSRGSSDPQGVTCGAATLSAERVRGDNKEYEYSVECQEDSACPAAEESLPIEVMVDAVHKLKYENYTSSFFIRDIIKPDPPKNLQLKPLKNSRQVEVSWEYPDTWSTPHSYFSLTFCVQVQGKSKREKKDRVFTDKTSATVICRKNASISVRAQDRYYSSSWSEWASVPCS


Assays:
[1] = molecular target: T1, IL-23 (R&D Systems, Catalog No. …); test: cell-based or functional assay
[2] = molecular target: T2, human IL23 protein (human IL12p40 - …); test: ForteBio BLI, antibody on AHQ sensor, 1:1 model
Description: The equilibrium dissociation constant (KD) of the above 17D1 humanized antibody and 17D1-YTE of the present invention to human IL-23p19 was measured by biological optical interferometry (ForteBio).
(§1) The ForteBio affinity assay was performed according to the prior art (Estep, P, et al., High throughput solution based measurement of antibody-antigen affinity and epitope binning MAbs, 2013.5(2): p. 270-8). Briefly, the sensor was equilibrated offline in an assay buffer for […], and was equilibrated online for 60 s to establish a baseline. The purified antibodies obtained as described above were loaded online onto an AHQ sensor (ForteBio) for the ForteBio affinity assay. The sensor with the loaded antibodies was then exposed to 100 nM […] antigens for […] before transferring the sensor to the assay buffer for […] of dissociation to measure the dissociation rate. The kinetic analysis was performed using a 1:1 binding model.

[3] = molecular target: cynomolgus monkey IL23 protein (cynomolgus IL12p40 - linker - cynomolgus IL23p19 - His tag) (cynomolgus monkey); test: ForteBio BLI, antibody on AHQ sensor, 1:1 model
Description: as §1

[4] = molecular target: T5, human FcRn (Acro, Catalog No. FCM-H5286) (human, UniProt P55899 24-297; P61769 21-119); test: ForteBio Octet RED96 BLI, biotinylated antibody on SA sensor, FcRn in solution, 1:1 model
T5 construct: Bought protein
Description: First, the 17D1 humanized antibody, 17D1-YTE, and Gmab (guselkumab) prepared as described above were labeled with biotin, with the molar ratio of antibody to biotin being 1:3. The biotin was removed using a desalting column and the labeled samples were re-measured and stored for later use.
(§2) An appropriate amount of SA sensor (Fortebio, Catalog No. 18-5019) was soaked in the analysis buffer for 30 min. The biotinylated 17D1 humanized antibody, 17D1-YTE, and Gmab were diluted to 100 nM, and human FcRn (Acro, Catalog No. FCM-H5286) was serially two-fold diluted to 5 concentrations (5, 2.5, 1.25, 0.625, 0.3125 μg/mL). The sensor was first equilibrated in the analysis buffer for 120 s. Then the biotinylated antibodies were loaded on the SA sensor for 100 s of immobilization, and the sensor was equilibrated for another 120 s after immobilization. After the baseline was stabilized, the serially diluted FcRns binded to the sensors with the same antibody immobilization level. After 100 s for binding, the sensors were equilibrated in analysis buffer for 120 s to measure the binding and dissociation. The experimental data were analyzed using a 1:1 model.

[5] = molecular target: T3, human IL-12 (ACRO Biosystems, Cat …); test: ForteBio BLI, antibody loaded on AHQ sensor
Description: as §1
(§3) The equilibrium dissociation constant (KD) for binding of the above 17D1 humanized antibody and 17D1-YTE antibody of the present invention to human interleukin protein human IL-12 (ACRO Biosystems, Cat #IL2-H4210) or human IL-12p40 (ACRO Biosystems, Cat #NK2-H52H7) of the same family was measured by biological optical interferometry (ForteBio) (Table 18).

[6] = molecular target: T4, human IL-12p40 (ACRO Biosystems, Cat …); test: ForteBio BLI, antibody loaded on AHQ sensor
Description: as §1, §3

[7] = molecular target: T5, human FcRn (Acro, Catalog No. FCM-H5286); test: ForteBio Octet RED96 BLI, biotinylated antibody on SA sensor
Description: In this assay, the ForteBio Octet RED96 System was used to detect the kinetic constant (KD) for binding of 17D1 humanized antibody and 17D1-YTE to human FcRn (Acro, Catalog No. FCM-H5286). The affinity of 17D1-YTE to human FcRn was three times those of 17D1 humanized antibody and reference antibody Gmab.
as §2

T5 sequence (P55899 24-297 limits assumed, chain 1 of 2): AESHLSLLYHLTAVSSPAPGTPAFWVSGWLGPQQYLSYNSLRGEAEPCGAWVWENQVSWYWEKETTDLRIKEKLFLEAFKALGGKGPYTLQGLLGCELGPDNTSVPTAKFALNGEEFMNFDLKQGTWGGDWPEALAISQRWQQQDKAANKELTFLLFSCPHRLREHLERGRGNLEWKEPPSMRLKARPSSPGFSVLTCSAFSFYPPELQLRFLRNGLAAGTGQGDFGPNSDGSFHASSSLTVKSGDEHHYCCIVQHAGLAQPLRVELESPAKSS
T5 sequence (P61769 21-119 limits assumed, chain 2 of 2): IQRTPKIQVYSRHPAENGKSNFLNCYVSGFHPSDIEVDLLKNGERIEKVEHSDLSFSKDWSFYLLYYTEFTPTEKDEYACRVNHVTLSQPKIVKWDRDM

| Binder | IC50 (inhibition of IL-23-induced IL-17 secretion in mouse splenic lymphocytes, IL-17 ELISA) [1] [µg/mL] | Kd [2] [nM] | koff [2] [s⁻¹] | kon [2] [M⁻¹ s⁻¹] | Kd [3] [nM] | Response [3] | koff [3] [s⁻¹] | kon [3] [M⁻¹ s⁻¹] | Kd [4] [nM] | koff [4] [s⁻¹] | kon [4] [M⁻¹ s⁻¹] | binding result [5] | binding result [6] | fold affinity against 17D1 humanized antibody and Gmab [7] [fold] |
| --- | --- | --- | --- | --- | --- | --- | --- | --- | --- | --- | --- | --- | --- | --- |
| guselkumab (antibody) chain 1: not shown chain 2: not shown | 0.124 | 1.04 | 0.00012 | 115000 | 0.941 | 0.284 | 5.8e-05 | 61600 | 13.2 | 0.0148 | 1.12e+06 | – | – | – |
| 17D1 humanized antibody (antibody, human IgG1, kappa, Biotinylated for the FcRn assay; also called humanized antibody 17D1; copies: 2 + 2) heavy: not shown light: DIQMTQSPSSLSASVGDRVTITCRASQSISDYLHWYQQKPGKAPKLLIKYASQSMSGVPSRFSGSGSGSDFTLTISSLQPEDFATYYCQQGHSFPFTFGQGTKLEIKRTVAAPSVFIFPPSDEQLKSGTASVVCLLNNFYPREAKVQWKVDNALQSGNSQESVTEQDSKDSTYSLSSTLTLSKADYEKHKVYACEVTHQGLSSPVTKSFNRGEC | 0.113 | 1.75 | 0.000164 | 93700 | 1.67 | 0.215 | 8.44e-05 | 50400 | 12.3 | 0.0141 | 1.15e+06 | no binding (tested: 100 nM) | no binding (tested: 100 nM) | – |
| 17D1-YTE (antibody, human IgG1, kappa, Biotinylated for the FcRn assay; also called 17D1-YTE antibody; copies: 2 + 2) heavy: QVQLVQSGAEVKKPGASVKVSCKASGYTFTSYLMHWVRQAPGQGLEWMGYINPYNEGTNYAQKFQGRVTMTRDTSISTAYMELSRLRSDDTAVYYCARNWDLPYWGQGTLVTVSSASTKGPSVFPLAPSSKSTSGGTAALGCLVKDYFPEPVTVSWNSGALTSGVHTFPAVLQSSGLYSLSSVVTVPSSSLGTQTYICNVNHKPSNTKVDKKVEPKSCDKTHTCPPCPAPELLGGPSVFLFPPKPKDTLYITREPEVTCVVVDVSHEDPEVKFNWYVDGVEVHNAKTKPREEQYNSTYRVVSVLTVLHQDWLNGKEYKCKVSNKALPAPIEKTISKAKGQPREPQVYTLPPSRDELTKNQVSLTCLVKGFYPSDIAVEWESNGQPENNYKTTPPVLDSDGSFFLYSKLTVDKSRWQQGNVFSCSVMHEALHNHYTQKSLSLSPG light: DIQMTQSPSSLSASVGDRVTITCRASQSISDYLHWYQQKPGKAPKLLIKYASQSMSGVPSRFSGSGSGSDFTLTISSLQPEDFATYYCQQGHSFPFTFGQGTKLEIKRTVAAPSVFIFPPSDEQLKSGTASVVCLLNNFYPREAKVQWKVDNALQSGNSQESVTEQDSKDSTYSLSSTLTLSKADYEKHKVYACEVTHQGLSSPVTKSFNRGEC | 0.114 | 0.611 | 5.69e-05 | 93100 | 0.37 | 0.207 | 2.16e-05 | 58400 | 3.34 | 0.0033 | 988000 | no binding (tested: 100 nM) | no binding (tested: 100 nM) | 3 |
